Target: recombinant LHCII (major light-harvesting complex), Lhcb1*2 (AB80) derivative with N-terminal Cys-Cys-Cys motif, C79S and C-terminal His6 tag (pea (Pisum sativum))
Test: sucrose density gradient ultracentrifugation; reconstituted monomers trimerized by His6 tag on Ni2+-sepharose columns, then sucrose density gradient (500 mM sucrose, 10 mM Tris-HCl pH 7.5, 5 mM TCEP, 0.05% (w/v) Triton X-100); trimer band collected and checked by CD (negative peak at 474 nm)

“recombinant LHCII (major light-harvesting complex), Lhcb1*2 (AB80) derivative with N-terminal Cys-Cys-Cys motif, C79S and C-terminal His6 tag (natural protein)” gave a stoichiometry N of 3.

From PMC5505961
